Read-outs that look alike come from different tables or passages of the source. Blank lines part the entries; values can stand above or below the binder they belong to.
How the values were obtained:
[1] = target: T1, mouse CNPase catalytic domain (mouse, UniProt P16330); assay: ITC; 8.5–11 μM CNPase catalytic domain in the cell, 88–95 μM Nb in the syringe; 20 mM HEPES, 150 mM NaCl, 0.5 mM TCEP, pH 7.5; +25°C; 1:1 binding model; single experiments
T1 construct: 2′,3′-cyclic nucleotide 3′-phosphodiesterase (CNPase), mouse, catalytic (C-terminal phosphodiesterase) domain; As used in ITC, crystallisation and SEC-SAXS; also called mCNPase catalytic domain; C-terminal phosphodiesterase domain; source: E. coli Rosetta (DE3), pTH27 vector, autoinduction, purified (SEC)

full-length mouse CNPase [2] = target: T2, full-length mouse CNPase (Mus musculus (mouse), UniProt P16330); assay: DSF thermal shift (SYPRO-Orange); full-length CNPase with Nb; 20 mM HEPES, 150 mM NaCl, 0.5 mM TCEP, pH 7.5; 20–95°C; N = 3; conditions: both partners purified
T2 construct: 2′,3′-cyclic nucleotide 3′-phosphodiesterase (CNPase), mouse, full-length; also called mCNPase; full-length mCNPase; source: E. coli Rosetta (DE3), pTH27 vector, autoinduction, purified (SEC)
T2 sequence (P16330 whole entry): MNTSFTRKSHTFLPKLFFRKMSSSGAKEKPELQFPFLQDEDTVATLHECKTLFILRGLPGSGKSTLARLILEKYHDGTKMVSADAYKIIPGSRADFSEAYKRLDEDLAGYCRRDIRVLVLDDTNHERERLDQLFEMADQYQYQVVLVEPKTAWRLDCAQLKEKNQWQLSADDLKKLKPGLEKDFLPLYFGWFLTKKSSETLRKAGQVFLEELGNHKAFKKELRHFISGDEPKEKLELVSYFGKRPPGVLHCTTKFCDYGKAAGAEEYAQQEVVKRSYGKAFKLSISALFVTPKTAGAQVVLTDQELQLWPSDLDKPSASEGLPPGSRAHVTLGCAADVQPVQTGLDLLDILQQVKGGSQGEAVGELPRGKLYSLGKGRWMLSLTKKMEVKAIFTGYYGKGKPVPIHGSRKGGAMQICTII

[3] = target: T1, mouse CNPase catalytic domain; assay: SEC-SAXS; Nb mixed with the CNPase catalytic domain in 1.3-fold molar excess; 20 mM HEPES, 150 mM NaCl, 0.5 mM TCEP, pH 7.5
full-length mouse CNPase [4] = target: T2, full-length mouse CNPase; assay: enzyme inhibition kinetics (Dixon plot); apparent Ki; 2′,3′-cNADP+ hydrolysis by full-length mCNPase, coupled assay; 100 mM Bis-Tris pH 6.0, 10 mM MgCl2; +25°C; conditions: both partners purified
[5] = target: T3, TOM70-EGFP-CNPase-ALFAtag (Mus musculus (assumed)); assay: recruitment to a mitochondria-anchored target (co-localisation by confocal microscopy); COS-7 cells co-transfected with TOM70-EGFP-CNPase and an iNb fused to mRuby3; fixed ca. 16 h after transfection; Pearson's correlation, N = 9 cells; conditions: partners not purified
T3 construct: 2′,3′-cyclic nucleotide 3′-phosphodiesterase (CNPase), catalytic domain; also called TOM70‐EGFP‐CNPase (catalytic domain); CNPase anchored to mitochondria; source: COS-7, co-transfected (pcDNA3.1, synthetic gene), in cells; not shown: TOM70 (anchor to the mitochondrial outer membrane), N-terminal, kept; EGFP, internal (between TOM70 and CNPase), kept
T3 chain: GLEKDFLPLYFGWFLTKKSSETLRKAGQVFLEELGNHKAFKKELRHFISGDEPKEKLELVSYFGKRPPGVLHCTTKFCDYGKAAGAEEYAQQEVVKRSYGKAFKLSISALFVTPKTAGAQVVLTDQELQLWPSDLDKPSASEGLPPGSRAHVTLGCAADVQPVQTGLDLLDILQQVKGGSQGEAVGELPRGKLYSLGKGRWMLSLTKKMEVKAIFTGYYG

full-length mouse CNPase [6] = target: T2, full-length mouse CNPase; assay: nanoDSF thermal shift (Trp fluorescence); complex prepared by SEC, 2 mg/mL; 20 mM HEPES, 200 mM NaCl, 0.5 mM TCEP, pH 7.5; conditions: both partners purified

B1: anti-CNPase nanobody NbCNP 8C (VHH)
VHH: EVQLEESGGGLVQAGGSLTLSCAASGFTFDDYAMGWYRQAPGKERVGVSCISRTDGYTYYLDSVKGRFTISTDHAKHTVYLQMNNLKPDDTGLYYCAADADPEYGSRCPDPYYGMDYWGKGILVTVSS
notes: Extra disulphide between CDR2 and CDR3; source: E. coli Shuffle T7, His6-MaBP fusion (pHMGWA), purified (NiNTA, TEV, reverse NiNTA, SEC); not shown: His6, N-terminal, cleaved
Kd ([1]; both partners purified): 16.6 nM | dH ([1]; both partners purified): -7.07 kcal/mol | stoichiometry N ([1]; both partners purified): 0.914 | ∆Tm (full-length mouse CNPase [2]): 9.2 °C | stoichiometry N ([3]; both partners purified): 1

B3: MaBP-10E (His6-maltose-binding protein fusion of NbCNP 10E) (VHH)
VHH: EVQLEESGGGLVQPGGSLRLSCAVSGITLDDFGIGWFRQAPGKEREGVACISPGYEHIYYADSAKGRFTISRDNAKNTVYLQMNNLKPWDTGVYYCAADNDLPDRLWGGSDWSDPSPYDYWGQGTQVTVSS
notes: as the VHH of m9; source: E. coli Shuffle T7, pHMGWA vector, purified; not shown: His6, N-terminal, kept
Kd ([1]; both partners purified): 13.4 nM | dH ([1]; both partners purified): -18.1 kcal/mol | stoichiometry N ([1]; both partners purified): 0.836

B5: anti-CNPase nanobody NbCNP 7E (VHH)
VHH: EVQLEESGGGWVHPGGSLRLSCAASGNVFGVNTMAWYRQAPGKQREQRELVASITDYGTTEYADSVKGRFTISGDNAKATVYLQMNSLKPEDTAVYYCNMDLTVMTATSSLYAYDYWGQGTQVTVSS
notes: source: E. coli Shuffle T7, His6-MaBP fusion (pHMGWA), purified (NiNTA, TEV, reverse NiNTA, SEC); not shown: His6, N-terminal, cleaved
Kd ([1]; both partners purified): 83.3 nM | dH ([1]; both partners purified): -14.2 kcal/mol | stoichiometry N ([1]; both partners purified): 0.863 | ∆Tm (full-length mouse CNPase [2]): 2.1 °C | stoichiometry N ([3]; both partners purified): 1

B6: anti-CNPase nanobody NbCNP 5E (VHH)
VHH: EVQLLESGGGSVQAGGSLRLSCAASGFTVGDYAIGWFRQAPGQQREAVACISTDDGDTYYADSVKGRFTISSDNAKKTAYLEMNNLKPEDTAVYHCAVDGWDSSCTFYSPSYYRDFSDHGAWGQGTQVTVSS
notes: Extra disulphide between CDR2 and CDR3; also called Nb5E; source: E. coli Shuffle T7, His6-MaBP fusion (pHMGWA), purified (NiNTA, TEV, reverse NiNTA, SEC); not shown: His6, N-terminal, cleaved
Kd [1]: 2.2 nM | dH [1]: -13.8 kcal/mol | stoichiometry N [1]: 0.82 | ∆Tm (full-length mouse CNPase [2]): 17 °C | stoichiometry N [3]: 1

B8: MaBP-8D (NbCNP 8D fusion with the intact His6-MaBP) (VHH)
VHH: EVQLEESGGGLVQPGGSLRLSCAASGFTFSSYVMSWVRQAPGKGLEWVSDINSGGSRTYYTDSVKGRFTISRDNAKNTLYLQMNSLKPEDTAVYYCARDSLLSTRYLHTSERGQGTQVTVSS
Kd [1]: 0.2 nM | dH [1]: -11 kcal/mol | stoichiometry N [1]: 0.837 | stoichiometry N [3]: 1

Continued, in another order:

Kd ([1]; both partners purified): 9.8 nM | dH ([1]; both partners purified): -12.1 kcal/mol | stoichiometry N ([1]; both partners purified): 0.804 | Ki (full-length mouse CNPase [4]): 0.604 nM
B2: anti-CNPase nanobody NbCNP 10E (VHH)
VHH: B3 VHH
notes: Purified as described for anti-Arc Nbs (Markusson et al., 2022); source: E. coli, pTH27 vector, purified (SEC, TEV, reverse NiNTA, SEC); not shown: His6, N-terminal, cleaved
∆Tm (full-length mouse CNPase [2]): 4.2 °C

binding result [5]: binds
B4: iNbCNP 10E fused to mRuby3 (VHH)
VHH: B3 VHH
notes: as the VHH of m9; also called NbCNP 10E-mRuby3; source: COS-7, co-transfected, in cells; not shown: mRuby3, C-terminal, kept

binding result [5]: binds
B7: iNbCNP 5E fused to mRuby3 (VHH)
VHH: B6 VHH
notes: as the VHH of m5; also called NbCNP 5E-mRuby3; source: COS-7, co-transfected, in cells; not shown: mRuby3, C-terminal, kept

binding result [5]: binds
B9: iNbCNP 8D fused to mRuby3 (VHH)
VHH: B8 VHH
notes: VHH of NbCNP 8D; also called NbCNP‐8D‐mRuby3; source: COS-7, co-transfected, in cells; not shown: mRuby3, C-terminal, kept

Kd [1]: 2.5 nM | dH [1]: -11 kcal/mol | stoichiometry N [1]: 0.8 | stoichiometry N [3]: 1
B10: anti-CNPase nanobody NbCNP 8D (VHH)
VHH: B8 VHH
notes: this construct has a short, extended tail; The batch from the His14-bdSUMO system was used for structural work; also called Nb 8D; source: E. coli SHuffle Express, His14-bdSUMO fusion, purified (Ni2+ beads, eluted by bdSENP1 cleavage)
∆Tm (full-length mouse CNPase [2]): 18 °C | ∆Tm (full-length mouse CNPase [6]): 17.7 °C

Reference: PMC11629607, “Nanobodies against the myelin enzyme CNPase as tools for structural and functional studies” (Journal of Neurochemistry, 2024)
